In patent publication US20160272683A1 (Novo Nordisk, published 2016):
Numbered stars: 1 amine (or outer) side, 2 acyl side, 3 side chain; on linkers, the order of the positions; unused ones are H or OH. * marks the point of attachment. C20 diacid = O=C(O)CCCCCCCCCCCCCCCCCCC(=O)*; γGlu = O=C(O)[C@H](CCC(=O)[*:2])N[*:1]

B1: [N-terminal(C20 diacid-gGlu), des1, 30S, 31G, 33H]mimylin (peptide)
peptide: {C20 diacid-γGlu}-ASELSTAALGRLSAELHELATLPRTETGSGSH-NH2
SMILES: CC(C)C[C@H](NC(=O)[C@H](C)NC(=O)[C@H](C)NC(=O)[C@@H](NC(=O)[C@H](CO)NC(=O)[C@H](CC(C)C)NC(=O)[C@H](CCC(=O)O)NC(=O)[C@H](CO)NC(=O)[C@H](C)NC(=O)CC[C@H](NC(=O)CCCCCCCCCCCCCCCCCCC(=O)O)C(=O)O)[C@@H](C)O)C(=O)NCC(=O)N[C@@H](CCCNC(=N)N)C(=O)N[C@@H](CC(C)C)C(=O)N[C@@H](CO)C(=O)N[C@@H](C)C(=O)N[C@@H](CCC(=O)O)C(=O)N[C@@H](CC(C)C)C(=O)N[C@@H](Cc1c[nH]cn1)C(=O)N[C@@H](CCC(=O)O)C(=O)N[C@@H](CC(C)C)C(=O)N[C@@H](C)C(=O)N[C@H](C(=O)N[C@@H](CC(C)C)C(=O)N1CCC[C@H]1C(=O)N[C@@H](CCCNC(=N)N)C(=O)N[C@H](C(=O)N[C@@H](CCC(=O)O)C(=O)N[C@H](C(=O)NCC(=O)N[C@@H](CO)C(=O)NCC(=O)N[C@@H](CO)C(=O)N[C@@H](Cc1c[nH]cn1)C(N)=O)[C@@H](C)O)[C@@H](C)O)[C@@H](C)O
B2: [N-terminal(C20 diacid-gGlu), 1A, 23Y, 30S, 31G]mimylin (peptide)
peptide: {C20 diacid-γGlu}-AASELSTAALGRLSAELHELATYPRTETGSGSP-NH2
SMILES: CC(C)C[C@H](NC(=O)[C@H](C)NC(=O)[C@H](C)NC(=O)[C@@H](NC(=O)[C@H](CO)NC(=O)[C@H](CC(C)C)NC(=O)[C@H](CCC(=O)O)NC(=O)[C@H](CO)NC(=O)[C@H](C)NC(=O)[C@H](C)NC(=O)CC[C@H](NC(=O)CCCCCCCCCCCCCCCCCCC(=O)O)C(=O)O)[C@@H](C)O)C(=O)NCC(=O)N[C@@H](CCCNC(=N)N)C(=O)N[C@@H](CC(C)C)C(=O)N[C@@H](CO)C(=O)N[C@@H](C)C(=O)N[C@@H](CCC(=O)O)C(=O)N[C@@H](CC(C)C)C(=O)N[C@@H](Cc1c[nH]cn1)C(=O)N[C@@H](CCC(=O)O)C(=O)N[C@@H](CC(C)C)C(=O)N[C@@H](C)C(=O)N[C@H](C(=O)N[C@@H](Cc1ccc(O)cc1)C(=O)N1CCC[C@H]1C(=O)N[C@@H](CCCNC(=N)N)C(=O)N[C@H](C(=O)N[C@@H](CCC(=O)O)C(=O)N[C@H](C(=O)NCC(=O)N[C@@H](CO)C(=O)NCC(=O)N[C@@H](CO)C(=O)N1CCC[C@H]1C(N)=O)[C@@H](C)O)[C@@H](C)O)[C@@H](C)O
B3: [N-terminal(C20 diacid-gGlu), des1, 4Q, 9V, 15Q, 16R, 19R, 21Q, 23Y, 27Q, 30S, 31Q, 32T, 33Y]mimylin (peptide)
peptide: {C20 diacid-γGlu}-ASQLSTAVLGRLSQRLHRLQTYPRTQTGSQTY-NH2
SMILES: CC(C)C[C@H](NC(=O)[C@H](CCCNC(=N)N)NC(=O)CNC(=O)[C@H](CC(C)C)NC(=O)[C@@H](NC(=O)[C@H](C)NC(=O)[C@@H](NC(=O)[C@H](CO)NC(=O)[C@H](CC(C)C)NC(=O)[C@H](CCC(N)=O)NC(=O)[C@H](CO)NC(=O)[C@H](C)NC(=O)CC[C@H](NC(=O)CCCCCCCCCCCCCCCCCCC(=O)O)C(=O)O)[C@@H](C)O)C(C)C)C(=O)N[C@@H](CO)C(=O)N[C@@H](CCC(N)=O)C(=O)N[C@@H](CCCNC(=N)N)C(=O)N[C@@H](CC(C)C)C(=O)N[C@@H](Cc1c[nH]cn1)C(=O)N[C@@H](CCCNC(=N)N)C(=O)N[C@@H](CC(C)C)C(=O)N[C@@H](CCC(N)=O)C(=O)N[C@H](C(=O)N[C@@H](Cc1ccc(O)cc1)C(=O)N1CCC[C@H]1C(=O)N[C@@H](CCCNC(=N)N)C(=O)N[C@H](C(=O)N[C@@H](CCC(N)=O)C(=O)N[C@H](C(=O)NCC(=O)N[C@@H](CO)C(=O)N[C@@H](CCC(N)=O)C(=O)N[C@H](C(=O)N[C@@H](Cc1ccc(O)cc1)C(N)=O)[C@@H](C)O)[C@@H](C)O)[C@@H](C)O)[C@@H](C)O
B4: [N-terminal(C20 diacid-gGlu), des1, 23Y, 30S, 31G]mimylin (peptide)
peptide: {C20 diacid-γGlu}-ASELSTAALGRLSAELHELATYPRTETGSGSP-NH2
SMILES: CC(C)C[C@H](NC(=O)[C@H](C)NC(=O)[C@H](C)NC(=O)[C@@H](NC(=O)[C@H](CO)NC(=O)[C@H](CC(C)C)NC(=O)[C@H](CCC(=O)O)NC(=O)[C@H](CO)NC(=O)[C@H](C)NC(=O)CC[C@H](NC(=O)CCCCCCCCCCCCCCCCCCC(=O)O)C(=O)O)[C@@H](C)O)C(=O)NCC(=O)N[C@@H](CCCNC(=N)N)C(=O)N[C@@H](CC(C)C)C(=O)N[C@@H](CO)C(=O)N[C@@H](C)C(=O)N[C@@H](CCC(=O)O)C(=O)N[C@@H](CC(C)C)C(=O)N[C@@H](Cc1c[nH]cn1)C(=O)N[C@@H](CCC(=O)O)C(=O)N[C@@H](CC(C)C)C(=O)N[C@@H](C)C(=O)N[C@H](C(=O)N[C@@H](Cc1ccc(O)cc1)C(=O)N1CCC[C@H]1C(=O)N[C@@H](CCCNC(=N)N)C(=O)N[C@H](C(=O)N[C@@H](CCC(=O)O)C(=O)N[C@H](C(=O)NCC(=O)N[C@@H](CO)C(=O)NCC(=O)N[C@@H](CO)C(=O)N1CCC[C@H]1C(N)=O)[C@@H](C)O)[C@@H](C)O)[C@@H](C)O

Assays:
[1] = target: T1, human amylin receptor (human calcitonin receptor + human RAMP3) (human) (UniProt P30988); test: whole-cell competition vs 125I-rat amylin (Assay Va)
T1 sequence (looked up) 1: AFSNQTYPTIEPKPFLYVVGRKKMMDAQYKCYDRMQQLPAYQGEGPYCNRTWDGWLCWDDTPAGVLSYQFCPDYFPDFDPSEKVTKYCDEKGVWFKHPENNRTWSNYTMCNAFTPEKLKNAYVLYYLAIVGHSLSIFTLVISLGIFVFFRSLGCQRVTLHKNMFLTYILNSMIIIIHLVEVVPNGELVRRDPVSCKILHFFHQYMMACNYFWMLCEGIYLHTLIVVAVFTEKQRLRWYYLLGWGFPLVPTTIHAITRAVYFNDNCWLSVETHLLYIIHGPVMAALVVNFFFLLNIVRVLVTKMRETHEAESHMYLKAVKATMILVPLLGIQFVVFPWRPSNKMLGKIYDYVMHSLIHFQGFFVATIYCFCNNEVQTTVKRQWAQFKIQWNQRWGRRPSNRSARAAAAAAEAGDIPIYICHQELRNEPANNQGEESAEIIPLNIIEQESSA
T1 sequence (looked up) 2: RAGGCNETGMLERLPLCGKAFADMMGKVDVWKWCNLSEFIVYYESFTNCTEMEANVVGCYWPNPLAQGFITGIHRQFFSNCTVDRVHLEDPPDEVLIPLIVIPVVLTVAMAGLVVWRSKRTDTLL

[2] = target: rat amylin receptor (rat calcitonin receptor with rat RAMP 3) (rat) (UniProt P32214); test: SPA competition vs 125I-rat amylin, membranes with rat CTR + rat RAMP3 (Assay VI)
[3] = target: rat calcitonin receptor (rat) (UniProt P32214); test: SPA competition vs 125I-calcitonin, membranes with rat CTR (Assay VIII)

Binder | IC50 [1] | IC50 [2] | IC50 [3]
B1 | 1.07 nM | 0.046 nM | 0.02 nM
B2 | 1.23 nM | 0.025 nM | 0.044 nM
{C20 diacid-γGlu}-ASELSTAALGHLSAELHELATLPRTETGSGSP-NH2 [[N-terminal(C20 diacid-gGlu), des1, 12H, 30S, 31G]mimylin] | 0.697 nM | 1.53 nM | 0.085 nM
B3 | 3.7 nM | 1.16 nM | 0.069 nM
B4 | 2.61 nM | 3.99 nM | 0.202 nM
